Laboratory results from US20240238445A1, “INHIBITORS AND USES THEREOF” (NEURACLE SCIENCE CO., LTD., priority 2021, published 2024).

Tests used:
[1] = target: binding of FAM19A5 protein to LRRC4B (amino acids 453-576)-hFc (Homo sapiens, UniProt Q7Z5A7); assay: Competitive inhibition assay, plate coated with LRRC4B (amino acids 453-576)-hFc, peptides at 20 nM
Excerpt: Next, to assess whether polypeptides comprising the binding domains of LRRC4 or LRRC4C proteins can have similar inhibitory effects on LRRC4B protein binding, the following synthetic peptides were constructed: (1) FBC4-23 (contains the binding domain of the LRRC4 protein, i.e., YSFFTTVTVETTE); and (2) FBC4C-23 (contains the binding domain of the LRRC4C protein, i.e., FSYFSTVTVETME). Then, the ability of the peptides to inhibit the binding of LRRC4 protein family members to FAM19A5 protein was assessed using a competitive inhibition assay. Briefly, plates were coated with 100 nM of either LRRC4B protein fragment #1 (amino acids 36-576 of SEQ ID NO: 2; SEQ ID NO: 5) or LRRC4B protein fragment #2 (amino acids 453-576 of SEQ ID NO: 2; SEQ ID NO: 7). Then, recombinant FAM19A5 protein (5 ng/ml for plates coated with LRRC4B fragment #1; and 1 ng/mL for plates coated with LRRC4B fragment #2) was added to the plates in combination with 20 nM of the FBC4-23, FBC4C-23, and FB-20 peptides. The plates were incubated at 37° C. and then, the amount of FAM19A5 protein bound to the coated LRRC4B protein fragments was assessed using HRP-conjugated anti-FAM19A5 (1-65) antibody.
Next, to determine the minimal sequence required to inhibit the interaction of FAM19A5 and members of the LRRC4 protein family, ten FB-20 peptide variants were constructed by serially deleting one or more amino acids from the N-terminus or C-terminus of the FB-20 peptide. Then, a competitive inhibition assay was used to assess the ability of the different FB-20 peptide variants to inhibit the interaction between FAM19A5 and LRRC4B protein. Again, plates were coated with 100 nM of either LRRC4B protein fragment #1 (amino acids 36-576 of SEQ ID NO: 2; SEQ ID NO: 5) or LRRC4B protein fragment #2 (amino acids 453-576 of SEQ ID NO: 2; SEQ ID NO: 7). Then, recombinant FAM19A5 protein (5 ng/ml for plates coated with LRRC4B fragment #1; and 1 ng/mL for plates coated with LRRC4B fragment #2) was added to the plates in combination with 20 nM of the different peptides described above. After incubating the plates at 37° C., the amount of FAM19A5 protein bound to the coated LRRC4B protein fragments was assessed using HRP-conjugated anti-FAM19A5 (1-65) antibody.
To identify the critical amino acid residues, multiple FB-20 peptide mutants were constructed, in which the individual residues of the core binding domain (i.e., YTYFTTVTVETLE; SEQ ID NO: 15) were substituted with alanine (A) or asparagine (N). Then, the ability of these FB-20 peptide mutants to inhibit the interaction between LRRC4B and FAM19A5 proteins was assessed, as described in Examples 3 and 4.

[2] = target: T1, FAM19A5 isoform 2 - LRRC4B protein complex in HEK293 cells (Homo sapiens, UniProt Q7Z5A7); assay: Immunofluorescence: dissociation of FAM19A5 from full-length LRRC4B in HEK293 cells; format: cell-based; settings: HEK293 cells expressing FAM19A5 isoform 2 and LRRC4B, treated 30 minutes
T1 construct: expressed in transfected cells; host or cells: HEK293
Method: Since LRRC4B protein fragments containing the binding domain described in Example 2 (e.g., LRRC4B (453-576); i.e., construct #11 in Table 6) was able to bind to FAM19A5 protein with high affinity, it was next assessed whether such protein fragments could compete with naturally existing LRRC4B protein for binding to FAM19A5 protein, and thereby, dissociate the FAM19A5-LRRC4 protein family complex. Briefly, HEK293 cells expressing both FAM19A5 isoform 2 and LRRC4B protein were treated in vitro for 30 minutes with either LRRC4B (453-576)-hFc or mutant LRRC4B (453-576)-hFc (includes alanine substitutions at positions 488 and 489 of SEQ ID NO: 2; SEQ ID NO: 16) protein fragments. Then, cells were immunostained with anti-FAM19A5 (1-65) and anti-LRRC4B antibodies to determine the expression of FAM19A5 and full-length LRRC4B proteins, respectively. The hFc-fused LRRC4B protein fragments were determined using an anti-hIgG antibody. The nuclei were stained with Hoechst 33342.

[3] = test system: mouse primary hippocampal neurons; assay: Synaptic marker (SYP, PSD95) expression in mouse primary hippocampal neurons; format: cell-based; settings: 6 or 60 nM
Method: Next, it is generally known that neurites that outgrow from other neurites are capable of differentiating into axons, forming presynapses. Other neurites remain minor neurites and differentiate into dendrites, forming postsynapses. Therefore, whether the LRRC4B (453-576) protein fragment can also affect pre- and post-synaptic formation was also assessed. Briefly, mouse primary hippocampal neurons were cultured in vitro with the LRRC4B (453-576) protein fragment (6 or 60 nM). Control cells were treated with either DMSO (“Veh”) or the mutant LRRC4B (453-576) protein fragment which is not capable of binding to FAM19A5 protein (comprises alanine substitutions at positions 488 and 489). Then, at days 3 and 6 post initial culture, the expression level of synaptophysin (SYP; a presynaptic marker) was assessed. At day 7 post initial culture, the expression level of postsynaptic density 95 (PSD95; a postsynaptic marker) was assessed.
Primary hippocampal neurons were prepared from postnatal pups (postnatal day 1) of C57BL/6 (Nara Biotech, Seoul, Korea) as previously described by Beaudoin et al., Nature protocols 7(9): 1741-1754 (2012), which is incorporated herein by reference in its entirety. Briefly, cortices were dissected in Hank's buffered salt solution (HBSS) (Invitrogen, Carlsbad, CA, USA) and digested with 2.5% trypsin for 15 min at 37° C. […]

binding of FAM19A5 protein to LRRC4B (amino acids 453-576)-hFc, sequence (Q7Z5A7 44-132): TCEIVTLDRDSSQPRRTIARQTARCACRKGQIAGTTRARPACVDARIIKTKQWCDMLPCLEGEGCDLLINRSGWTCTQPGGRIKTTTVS
T1 sequence (Q7Z5A7 1-125 isoform Q7Z5A7-2, one chain of several): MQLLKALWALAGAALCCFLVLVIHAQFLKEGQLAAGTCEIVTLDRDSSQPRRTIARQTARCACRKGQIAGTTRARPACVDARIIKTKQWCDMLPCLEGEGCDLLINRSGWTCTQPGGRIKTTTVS

Molecule | Inhibition rate (%) LRRC4B (amino acids 453-576)-hFc ([1]; Table 8, 20 nM peptide, FAM19A5 1 ng/mL) | Inhibition rate (%) LRRC4B (amino acids 453-576)-hFc ([1]; Table 9, deletion variants, 20 nM peptide, FAM19A5 1 ng/mL) | Inhibition rate (%) LRRC4B (amino acids 453-576)-hFc ([1]; Table 10, alanine/asparagine mutants) | dissociation of FAM19A5 from full-length LRRC4B protein [2] | SYP and PSD95 expression [3] | number of puncta colabeled with SYP and PSD95 [3]
GYTYFTTVTVETLETQPGEE [FB-20] | 63.2% | 62.0% | 63.2% | – | – | –
LRRC4B (453-576): LRRC4B ectodomain fragment, amino acids 453-576 of SEQ ID NO: 2; FLAG-tagged or hFc-fused (protein, FLAG tag or human Fc, FLAG-tagged or hFc-fused) VSAVDPVAAGGTGSGGGGPGGSGGVGGGSGGYTYFTTVTVETLETQPGEEALQPRGTEKEPPGPTTDGVWGGGRPGDAAGPASSSTTAPAPRSSRPTEKAFTVPITDVTENALKDLDDVMKTTK | – | – | – | largely dissociated from the full-length LRRC4B protein | increased both SYP and PSD95 expression | increased number of puncta that were colabeled with SYP and PSD95
